Like-named read-outs stand apart in the source and are kept apart here.
Columns and labels:
[1] = target: T1, cyno CD33 extracellular domain (Cynomolgus/Rhesus (cyno)); experiment: SPR, Fab captured, 37C;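 note: surface plasmon resonance with Fabs captured on anti-Fab surface, soluble monomeric CD33 as analyte at several concentrations, double-referenced 1:1 model fit, KD as koff/kon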
T1 construct: soluble monomeric ECD; also called cyno CD33 ECD

[2] = target: T2, deglycosylated V domain of human CD33 (human, UniProt P20138 18-139, limits assumed, N-glycans removed by PNGase); experiment: SPR, Fab captured, 37C
T2 construct: V domain deglycosylated by PNGase before testing; also called deglycosylated V CD33
Experimental: (§1) Kinetics and affinity of a series of Fab fragments of anti-CD33 antibodies with different CD33 variants (human CD33 ECD, cyno CD33 ECD, V-domain of human CD33, C-domain or human CD33 and selected CD33 SNPs) were assessed by surface plasmon resonance using Biacore 8K instrument (GE Healthcare). Anti-Fab antibody was immobilized on a CMS chip using standard amine coupling chemistry. CD33 FABs were captured on the anti-Fab chip at a density of ˜100 RU. Solutions containing different concentrations of soluble monomeric CD33 or its domains were injected over the captured FABs and control surfaces at 30 μl/min at 37° C. Surfaces were regenerated between cycles by quick injection of 10 mM glycine, pH 1.8. To obtain kinetic rate constants double-referenced data were fit to a 1:1 interaction model using Biacore 8K Evaluation software (GE Healthcare). The equilibrium binding constant KD was determined by the ratio of binding rate constants kd/kₐ.
(§2) The ability of anti-CD33 antibodies to recognize glycosylated CD33 was assayed. […] De-glycosylation status was confirmed by a shift on SDS-PAGE and MS.

C domain of human CD33 = target: T3, C domain of human CD33 (human, UniProt P20138 140-259, limits assumed); experiment: SPR, Fab captured, 37C
T3 construct: recombinant C domain

[3] = target: T4, human CD33 extracellular domain (human, UniProt P20138 18-259); experiment: BLI Octet, IgG loaded;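 note: IgGs captured on AHC biosensors, exposed to 100 nM antigen for 3 min association then 3 min dissociation in buffer, kinetics fitted with a 1:1 binding model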
T4 construct: soluble monomeric ECD; also called human CD33 ECD; hCD33
Experimental: Briefly, ForteBio affinity measurements were performed by loading IgGs on-line onto AHC sensors. Sensors were equilibrated off-line in assay buffer for 30 min and then monitored on-line for 60 seconds for baseline establishment. Sensors with loaded IgGs were exposed to 100 nM antigen for 3 minutes, and afterwards were transferred to assay buffer for 3 min for off-rate measurement. All kinetics were analyzed using the 1:1 binding model.

V domain of human CD33 [4] = target: T5, V domain of human CD33 (human, UniProt P20138 18-139, limits assumed); experiment: SPR, Fab captured, 37C
T5 construct: recombinant, fully glycosylated V domain; also called Human CD33 V domain

V domain of human CD33 [5] = target: T5, V domain of human CD33; experiment: SPR, Fab captured, 37C; remark: listed apart in the source
Experimental: as §1, §2

[6] = target: T4, human CD33 extracellular domain; experiment: SPR, Fab captured, 37C;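 note: surface plasmon resonance with Fabs captured on anti-Fab surface, soluble monomeric CD33 as analyte at several concentrations, double-referenced 1:1 model fit, KD as koff/kon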

binding result [1] | Kd [2] [nM] | koff [2] [s⁻¹] | kon [2] [M⁻¹ s⁻¹] | binding result (C domain of human CD33) | Kd [3] [nM] | koff [3] [s⁻¹] | kon [3] [M⁻¹ s⁻¹] | Binder | other results
no binding (tested: 100 nM) | 156 | 0.203 | 1.3e+06 | no binding | – | – | – | ADI-10165 Fab (Fab, V domains shown, Fab fragment; also called Ab19) VH: EVQLVESGGGLVQPGGSLRLSCAASGFTFSSYWMSWVRQAPGKGLEWVANIKQDGSEKYYVDSVKGRFTISRDNAKNSLYLQMNSLRAEDTAVYYCARDVGPGIAYQGHFDYWGQGTLVTVSS VL: not shown | –
– | – | – | – | – | 2.45 | 0.00172 | 704000 | ADI-11839 IgG (antibody, V domains shown, IgG; also called Ab28) VH: QVQLVQSGAEVKKPGASVKVSCKASGYTFSNYYMHWVRQAPGQGLEWMGWINPFSGGTRYAQKFQGRVTMTRDTSTSTVYMELSSLRSEDTAVYYCARDVGSSAYYYMDVWGKGTTVTVSS VL: DIQMTQSPSSVSASVGDRVTITCEASKGISSWLAWYQQKPGKAPKLLIYAASDLQSGVPSRFSGSGSGTDFTLTISSLQPEDFATYYCQQAFLFPPTFGGGTKVEIK | –
no binding (tested: 100 nM) | 88.1 | 0.231 | 2.63e+06 | no binding | – | – | – | ADI-10158 Fab (Fab, V domains shown, Fab fragment; also called Ab14) VH: QVQLQQWGAGLLKPSETLSLTCAVYGGSFSGYYWSWIRQPPGKGLEWIGEIDHSGSTNYNPSLKSRVTISVDTSKNQFSLKLSSVTAADTAVYYCARQGIHGLRYFDLWGRGTLVTVSS VL: EIVMTQSPATLSLSPGERATLSCRASQSVSSYLAWYQQKPGQAPRLLIYDASNRATGIPARFSGSGSGTDFTLTISSLEPEDFAVYYCQQDHNFPYTFGGGTKVEIK | Kd (V domain of human CD33 [4]): 127 nM; koff (V domain of human CD33 [4]): 0.133 s⁻¹; kon (V domain of human CD33 [4]): 1.04e+06 M⁻¹ s⁻¹; Kd (V domain of human CD33 [5]): 127 nM; koff (V domain of human CD33 [5]): 0.133 s⁻¹; kon (V domain of human CD33 [5]): 1.04e+06 M⁻¹ s⁻¹
no binding (tested: 100 nM) | – | – | – | no binding | – | – | – | ADI-10168 Fab (Fab, V domains shown, Fab fragment; also called Ab21) VH: QVQLVQSGAEVKKPGSSVKVSCKASGGTFSSYAISWVRQAPGQGLEWMGSIIPIFGTANYAQKFQGRVTITADESTSTAYMELSSLRSEDTAVYYCAREVGYGWYTKIAFDIWGQGTMVTVSS VL: EIVLTQSPATLSLSPGERATLSCRASQSVSSYLAWYQQKPGQAPRLLIYDASKRATGIPARFSGSGSGTDFTLTISSLEPEDFAVYYCQQSSNHPSTFGGGTKVEIK | binding result (V domain of human CD33 [4]): no binding; binding result [2]: no binding
no binding (tested: 100 nM) | – | – | – | – | – | – | – | Fab fragment from Lintuzumab (Fab, V domains shown, Fab fragment) VH: QVQLVQSGAEVKKPGSSVKVSCKASGYTFTDYNMHWVRQAPGQGLEWIGYIYPYNGGTGYNQKFKSKATITADESTNTAYMELSSLRSEDTAVYYCARGRPAMDYWGQGTLVTVSS VL: DIQMTQSPSSLSASVGDRVTITCRASESVDNYGISFMNWFQQKPGKAPKLLIYAASNQGSGVPSRFSGSGSGTDFTLTISSLQPDDFATYYCQQSKEVPWTFGQGTKVEIK | Kd [6]: 16.7 nM; koff [6]: 0.0122 s⁻¹; kon [6]: 735000 M⁻¹ s⁻¹
– | – | – | – | – | 2.21 | 0.000952 | 431000 | Lintuzumab (antibody, V domains shown, IgG; also called lintuzumab IgG) VH: QVQLVQSGAEVKKPGSSVKVSCKASGYTFTDYNMHWVRQAPGQGLEWIGYIYPYNGGTGYNQKFKSKATITADESTNTAYMELSSLRSEDTAVYYCARGRPAMDYWGQGTLVTVSS VL: DIQMTQSPSSLSASVGDRVTITCRASESVDNYGISFMNWFQQKPGKAPKLLIYAASNQGSGVPSRFSGSGSGTDFTLTISSLQPDDFATYYCQQSKEVPWTFGQGTKVEIK | –

Reference: patent US20220380459A1 (DRAGONFLY THERAPEUTICS, published 2022)
